From US20230189818A1, “RNA-BASED CONTROL OF BOTRYTIS” (priority 2021, published 2023)

B1: GS2589: dsRNA trigger targeting B. cinerea Bcsec15 (XM_024692064.1); trigger SEQ ID NO 49, RNA 53, reverse complement 57 (nucleic acid, listed as Botrytis cinerea)
sense: GGUAUGUUCCGGACAGACCGAAAGAAGAAUACACAUUCCCCGGUGUAUUACCAUUCUCCCAGAUGUACCCAAUGUGCUGUAUAGAUAUCAGAAAUUUCCUGAAUCGAUUCUACUUCAUAAUGGAUGAUCAUUUUCAACAGCCAAACAUUAUUGAUGAGACACUUAAGAAGUCGAUAGAUGAGCUUCUGUCUGAGGAUAUUU
antisense: AAAUAUCCUCAGACAGAAGCUCAUCUAUCGACUUCUUAAGUGUCUCAUCAAUAAUGUUUGGCUGUUGAAAAUGAUCAUCCAUUAUGAAGUAGAAUCGAUUCAGGAAAUUUCUGAUAUCUAUACAGCACAUUGGGUACAUCUGGGAGAAUGGUAAUACACCGGGGAAUGUGUAUUCUUCUUUCGGUCUGUCCGGAACAUACC
B2: GS2291: dsRNA trigger targeting B. cinerea Bcgpi2 (XM_024693470.1); trigger SEQ ID NO 22, RNA 34, reverse complement 46 (nucleic acid, listed as Botrytis cinerea)
sense: CUGUCAACCAAUUGCGCAUGACAAAUGGAGAUGCUGGACGAUUAAGAAGUAGAGGAAGACAUGCUGAUAGAACGAAGAGUAGCACCAGAAGACGGAAAACUACUUGGAAAAAGCUGCUAUGGGUGAAGCAAUCAUAUCCAGACAAUUACACGGAUCAAGAUACAUUUCUCGAACAUCUGCAGCGAAAUCCACGUCUUCAGCCUUACGACUUUUGGCCAUUGGUAGCAGAUUCCACGGUUAUAGUACAACACGUUUGUUCGGUCAUUAUAUUCAUUGUUUCUUUCGUUGGGAUAUAUGAUAAACAUGUCUCGCCAGUUUCUGUGGUUGGCUGGGGCUCUAUUGCUACCUUUUUGGGGUGGGUGUUAUGGGAUUUAUGGGUGGGACAGGAAGAAAGUACUCGUCCAGCAUUUCCACCACCGCAGCCUUUCUCUCACAGUGUAUCUGCAACAAGUUCAACACCAAACCUAUUGGCAACAGCUGCAAGUGGGCCAAGGCAAUCCUACUCGAUGUCAACAACAUCUCUUCAAUCUACAGCCUCGAAUCUAACCCAACCACCUCCAAUACGACCGGUUUAUACACCACAUAAUU
antisense: AAUUAUGUGGUGUAUAAACCGGUCGUAUUGGAGGUGGUUGGGUUAGAUUCGAGGCUGUAGAUUGAAGAGAUGUUGUUGACAUCGAGUAGGAUUGCCUUGGCCCACUUGCAGCUGUUGCCAAUAGGUUUGGUGUUGAACUUGUUGCAGAUACACUGUGAGAGAAAGGCUGCGGUGGUGGAAAUGCUGGACGAGUACUUUCUUCCUGUCCCACCCAUAAAUCCCAUAACACCCACCCCAAAAAGGUAGCAAUAGAGCCCCAGCCAACCACAGAAACUGGCGAGACAUGUUUAUCAUAUAUCCCAACGAAAGAAACAAUGAAUAUAAUGACCGAACAAACGUGUUGUACUAUAACCGUGGAAUCUGCUACCAAUGGCCAAAAGUCGUAAGGCUGAAGACGUGGAUUUCGCUGCAGAUGUUCGAGAAAUGUAUCUUGAUCCGUGUAAUUGUCUGGAUAUGAUUGCUUCACCCAUAGCAGCUUUUUCCAAGUAGUUUUCCGUCUUCUGGUGCUACUCUUCGUUCUAUCAGCAUGUCUUCCUCUACUUCUUAAUCGUCCAGCAUCUCCAUUUGUCAUGCGCAAUUGGUUGACAG
B3: GS2641: dsRNA trigger targeting B. cinerea Bcsec15 (XM_024692064.1); trigger SEQ ID NO 51, RNA 55, reverse complement 59 (nucleic acid, listed as Botrytis cinerea)
sense: CAAACAAUGGAGGGUUGGGGAUAUUCAGUUGCCAUAUUAGAUGCUUAUGUGCUUAAGCUUUUCUAUAGAUAUGCUGAUUUGUUAAAACGGAAAUUCAGCACAGAUUUUCAACAGAUUGUGUCUACCGAUGAAUACAUGCCUAUGCCUGUCAAUAGCGAAGAAGACUUUGAUAAAAUCAUUCAAGUCAGUUGGUAUGUUCCGGACAGACCGAAAGAAGAAUACACAUUCCCCGGUGUAUUACCAUUCUCCCAGAUGUACCCAAUGUGCUGUAUAGAUAUCAGAAAUUUCCUGAAUCGAUUCUACUUCAUAAUGGAUGAUCAUUUUCAACAGCCAAACAUUAUUGAUGAGACACUUAAGAAGUCGAUAGAUGAGCUUCUGUCUGAGGAUAUUU
antisense: AAAUAUCCUCAGACAGAAGCUCAUCUAUCGACUUCUUAAGUGUCUCAUCAAUAAUGUUUGGCUGUUGAAAAUGAUCAUCCAUUAUGAAGUAGAAUCGAUUCAGGAAAUUUCUGAUAUCUAUACAGCACAUUGGGUACAUCUGGGAGAAUGGUAAUACACCGGGGAAUGUGUAUUCUUCUUUCGGUCUGUCCGGAACAUACCAACUGACUUGAAUGAUUUUAUCAAAGUCUUCUUCGCUAUUGACAGGCAUAGGCAUGUAUUCAUCGGUAGACACAAUCUGUUGAAAAUCUGUGCUGAAUUUCCGUUUUAACAAAUCAGCAUAUCUAUAGAAAAGCUUAAGCACAUAAGCAUCUAAUAUGGCAACUGAAUAUCCCCAACCCUCCAUUGUUUG
B4: GS2640: dsRNA trigger targeting B. cinerea Bcsec15 (XM_024692064.1); trigger SEQ ID NO 50, RNA 54, reverse complement 58 (nucleic acid, listed as Botrytis cinerea)
sense: AAAUUCAGCACAGAUUUUCAACAGAUUGUGUCUACCGAUGAAUACAUGCCUAUGCCUGUCAAUAGCGAAGAAGACUUUGAUAAAAUCAUUCAAGUCAGUUGGUAUGUUCCGGACAGACCGAAAGAAGAAUACACAUUCCCCGGUGUAUUACCAUUCUCCCAGAUGUACCCAAUGUGCUGUAUAGAUAUCAGAAAUUUCCUGAAUCGAUUCUACUUCAUAAUGGAUGAUCAUUUUCAACAGCCAAACAUUAUUGAUGAGACACUUAAGAAGUCGAUAGAUGAGCUUCUGUCUGAGGAUAUUU
antisense: AAAUAUCCUCAGACAGAAGCUCAUCUAUCGACUUCUUAAGUGUCUCAUCAAUAAUGUUUGGCUGUUGAAAAUGAUCAUCCAUUAUGAAGUAGAAUCGAUUCAGGAAAUUUCUGAUAUCUAUACAGCACAUUGGGUACAUCUGGGAGAAUGGUAAUACACCGGGGAAUGUGUAUUCUUCUUUCGGUCUGUCCGGAACAUACCAACUGACUUGAAUGAUUUUAUCAAAGUCUUCUUCGCUAUUGACAGGCAUAGGCAUGUAUUCAUCGGUAGACACAAUCUGUUGAAAAUCUGUGCUGAAUUU

test system: Botrytis cinerea conidia; test: In vitro liquid-based assay (fungal biomass, 96-well plates, Cytation 5); type: cell-based; conditions: 25 ppm dsRNA, co-incubated with conidia for three days, vs untreated control
Protocol: Fungal culture. The Botrytis cinerea was plated each week the culture onto Malt Extract Agar (MEA) from long-term storage on silica stored at 4° C. Three pellets of silica were added to the center of a MEA agar plate and grown at room temperature without parafilm/tape seal for 10-14 days before use; a culture 12 days old was typically used.
Spore and media preparation. A pure culture of B. cinerea was flooded with a 0.01% Triton x-100 solution and conidia scraped free with a sterile hockey stick. The suspension was transferred to two, 1.5 mL centrifuge tubes and centrifuged at 8000 rpm for two minutes. The supernatant was discarded, pelleted spores washed twice with sterile water, then resuspended in sterile water. Conidia were quantified using a hemacytometer and diluted to a final concentration of 5000 conidia/mL stock. A stock solution of 1.25× minimal media was prepared for the assay setup using the components below. Once the stock solution was made, the pH was adjusted to 6.0 using NaOH or KOH, then filter sterilized through a 0.2 um filter tower and vacuum pump and stored at 4° C. The Kao & Michayluk Vitamins (100×) is a filter sterilized stock solution. The stock contains vitamins and amino acids as described by Kao & Michayluk. After filter sterilization, 20 mg of 4-Aminobenzoic acid in 100 ml of solution was added.
Experimental setup. Screening assays were setup in 96-well plates with conidia co-incubated with treatments (controls and dsRNAs) for three days before determining fungal biomass. Each treatment was replicated eight times within a single plate. In each well consisted of 12.5 μl of conidia suspension, 25 μl of the treatment, 12.5 μl of sterile deionized water, and 200 μl of minimal media. Each plate was covered with a breath right film and placed in the percival growth chamber at 23° C. on the shaking platform set to 120 RPM with 24-hour lighting. Plates were incubated for 72 hours before determining fungal growth.
Reading assay plate. Fungal biomass was determined by reading plates with the Cytation 5 machine. The program was set to compile 8 photo slices per well under brightfield microscopy with a 2.5× lens to measure biomass.
Data analysis. Analysis will automatically run on Cytation5 to determine final biomass.
Results are shown in Table 1B representing the average reduction in biomass vs. control for tested sequences across several runs described above.

Molecule | Average % Reduction in Biomass [%]
B1 | 20
B2 | 5
B3 | 14
B4 | 24

same assay, conditions: 150 ppm dsRNA, co-incubated with conidia for three days, vs untreated control

Molecule | Average % Reduction in Biomass [%]
B1 | 39
B2 | 24
B3 | 37
B4 | 54

test system: Botrytis cinerea isolate (B05.10); test: Detached leaf assay (tomato leaflets, lesion size); type: in vivo; conditions: 30 ppm, five days post inoculation, vs untreated inoculated control
Protocol: Plant tissue. Tomato plants, variety Brandywine, were grown in the greenhouse for 3 weeks before harvesting the first true leaves for assays. Nodes 2-4 were prioritized for harvest and only lateral leaflets were used for assays. Leaflets of approximately the same size were used each week and were randomized among treatments. Detached leaflets were immediately brought into the lab for treatment and used within 4 hours of harvest. Detached leaflets were kept at 4° C. until they were treated and placed onto a 1% water agar medium for incubation.
Fungal culture. A Botrytis cinerea isolate (B05.10) was preserved on silica for long-term storage and pulled from these tubes stored at 4° C. for growth on a nutritive medium. Three pellets of silica were added to the center of a Malt Extract Agar (MEA) agar plate and grown at room temperature without parafilm/tape seal for ˜14 days, or until abundant conidia formation, before use.
Treatment of leaflets. Leaflets were treated 24 hours before inoculation and applied using an atomizer to get a fine mist of small droplets entirely covering the leaflet. Silwet L-77 was used as a spreader and added for a 0.03% final concentration (Silwet L-77 brand Phyto Technology Laboratories, S7777 Lot #14D7777001 F). The inoculated control was sprayed with the same volume of sterile DI water with Silwet L-77 in the absence of fungicide or experimental material. Leaflets were spray treated by laying them on a paper towel and holding the atomizer ˜6″ away from the leaflet for applications. Treated leaves were placed on a 1% water agar (10 g Bacto Agar, Difco, in 1 L deionized water, sterilized for 30 minutes at 121° C. and poured when reached a temp of 55° C. into 100×20 mm Petri dishes), with lids of the Petri dishes placed back on before putting Petri dishes under plastic bags to maintain humidity before inoculation the following day. Petri dishes of treated leaflets were left on the lab counter until the following day. Each treatment was replicated ten times with each replicate being a single treated leaflet with two inoculation sites, one on each side of the leaf midvein.
Inoculation. The conidial suspension was prepared by pouring a 7% white grape juice solution onto the culture plate, then scraping the plate with a sterile spatula to dislodge the spores and mycelia. The grape juice solution was prepared by mixing Welch's brand organic white grape juice into sterile deionized water. After dislodging the spores and mycelia of the culture, the suspension was poured through two layers of cheesecloth to remove fungal mycelia and catch the conidial suspension in a clean 50 mL conical tube. Approximately 3 uL of TWEEN 20 was added to conidial suspension to prevent sticking to conical tube. The spore concentration was determined using a Neubauer Improved hemocytometer and inoculum was diluted with more 7% grape juice until a spore concentration of 1×10^5 conidia/mL was reached. Inoculum was used to inoculate host tissue within 2 hours of preparation. Each tomato leaflet was inoculated twice, with inoculation sites placed one per side of the leaflet midvein. A 10 μL volume of spore suspension was placed at each inoculation site using a repeater pipette. Special care was taken not to touch the tip to leaflet surface to avoid contamination between treatments.
Incubation. Petri dishes were placed on lunch trays 6 plates high and moved to an incubator. The incubator was humidity controlled and holds at ˜75% relative humidity. The incubator was kept on 12/12 light/dark days and is set to a temperature of 23° C.
Rating. Measurements were taken at five days post inoculation (DPI). Each lesion that developed was measured using electronic calipers in 2 directions perpendicular to each other to help determine lesion diameter.
Data analysis. Data was analyzed using the SAS JMP statistical program (version 13.2.1) with comparisons made to the untreated, inoculated control. […]

Molecule | Average % Reduction in Lesion Size [%]
B2 | 28.77
B3 | 15.75
B4 | 19.63

same assay, conditions: 50 ppm, five days post inoculation, vs untreated inoculated control

Molecule | Average % Reduction in Lesion Size [%]
B2 | 46.11
B3 | 30.49
B4 | 22.76
